Test results as given in PMC4837482, “The complex binding mode of the peptide hormone H2 relaxin to its receptor RXFP1” (Nature Communications, 2016).
Numbering of substitutions follows the chain as printed. One block for each molecule: values may come before it.

Experiments:
RXFP1 F50A = target: T1, RXFP1 F50A (Homo sapiens, UniProt Q9HBX9, F72A); test: Eu-H2 relaxin saturation binding assay, transfected HEK293T cells; details: F50A RXFP1 versus wild-type RXFP1
T1 construct: expressed in transfected cells; host or cells: HEK293T
T1 sequence (Q9HBX9 23-757 F72A limits assumed): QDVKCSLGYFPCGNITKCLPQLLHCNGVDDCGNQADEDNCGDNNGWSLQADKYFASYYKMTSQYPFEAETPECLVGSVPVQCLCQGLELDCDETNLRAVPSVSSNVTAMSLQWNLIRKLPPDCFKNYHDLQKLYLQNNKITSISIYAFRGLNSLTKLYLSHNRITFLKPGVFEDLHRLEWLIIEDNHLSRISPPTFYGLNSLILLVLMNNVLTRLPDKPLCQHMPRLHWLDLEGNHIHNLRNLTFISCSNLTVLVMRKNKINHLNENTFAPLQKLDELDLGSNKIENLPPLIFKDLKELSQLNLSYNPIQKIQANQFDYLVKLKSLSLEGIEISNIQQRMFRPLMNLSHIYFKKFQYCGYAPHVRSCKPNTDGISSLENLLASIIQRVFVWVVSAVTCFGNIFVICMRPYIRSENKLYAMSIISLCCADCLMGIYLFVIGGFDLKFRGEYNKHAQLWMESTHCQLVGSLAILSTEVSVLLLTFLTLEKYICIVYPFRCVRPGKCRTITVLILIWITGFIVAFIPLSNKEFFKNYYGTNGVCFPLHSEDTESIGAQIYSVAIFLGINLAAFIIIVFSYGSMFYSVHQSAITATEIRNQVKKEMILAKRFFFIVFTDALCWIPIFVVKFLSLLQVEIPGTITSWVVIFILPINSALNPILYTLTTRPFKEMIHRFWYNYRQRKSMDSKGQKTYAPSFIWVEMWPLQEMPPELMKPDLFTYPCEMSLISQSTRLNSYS

RXFP1 C40A^ins = target: T2, RXFP1 C40A^ins (Homo sapiens, UniProt Q9HBX9, INS62A); test: as above; details: C40A^ins full-length RXFP1 versus wild-type RXFP1
T2 construct: cells expressing full-length RXFP1 and mutants; expressed in transfected cells; host or cells: HEK293T
T2 sequence (Q9HBX9 with tags, fused parts or gaps INS62A limits assumed): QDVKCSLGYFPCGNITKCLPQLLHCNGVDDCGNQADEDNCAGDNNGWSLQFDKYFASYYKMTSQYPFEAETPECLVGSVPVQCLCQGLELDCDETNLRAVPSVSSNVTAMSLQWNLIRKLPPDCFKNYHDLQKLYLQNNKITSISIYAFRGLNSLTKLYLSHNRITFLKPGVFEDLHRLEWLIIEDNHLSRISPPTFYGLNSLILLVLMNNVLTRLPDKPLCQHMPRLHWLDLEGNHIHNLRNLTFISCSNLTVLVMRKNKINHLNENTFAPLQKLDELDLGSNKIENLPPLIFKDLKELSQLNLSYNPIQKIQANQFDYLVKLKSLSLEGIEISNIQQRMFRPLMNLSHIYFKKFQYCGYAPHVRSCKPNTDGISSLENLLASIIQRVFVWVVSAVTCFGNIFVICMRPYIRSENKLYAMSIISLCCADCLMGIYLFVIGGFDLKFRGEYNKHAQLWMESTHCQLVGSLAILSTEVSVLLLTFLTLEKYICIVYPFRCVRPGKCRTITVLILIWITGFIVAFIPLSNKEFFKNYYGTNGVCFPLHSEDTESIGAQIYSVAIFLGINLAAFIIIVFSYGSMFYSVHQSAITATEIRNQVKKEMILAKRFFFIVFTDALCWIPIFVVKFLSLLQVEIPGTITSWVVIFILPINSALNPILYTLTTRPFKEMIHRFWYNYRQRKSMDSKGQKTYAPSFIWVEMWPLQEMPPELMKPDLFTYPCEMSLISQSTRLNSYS

[1] = target: T3, RXFP1 G45A/W46A, full length (human); test: cell-based or functional assay
T3 chain: T1 sequence (Q9HBX9 23-757 F72A limits assumed) with G45A, W46A, A50F

[2] = target: T4, RXFP1 G41A/D42A, full length (human); test: cell-based or functional assay
T4 chain: T1 sequence (Q9HBX9 23-757 F72A limits assumed) with G41A, D42A, A50F

Molecule: H2 relaxin: two-chain 6-kDa peptide hormone structurally related to insulin; recombinant human gene-2 H2 relaxin provided by Corthera
- loss in H2 relaxin binding (RXFP1 F50A): tenfold
- decrease in H2 relaxin affinity (RXFP1 C40A^ins): sixfold

- H2 relaxin-induced cAMP response (pCRE β-galactosidase reporter, HEK293T), pEC50 [1]: < 6 pEC50
- H2 relaxin-induced cAMP response (pCRE β-galactosidase reporter, HEK293T), pEC50 [2]: 7.26 pEC50
B1: H2 relaxin (ligand, human)
chain 1: QLYSALANKCCHVGCTKRSLARFC
chain 2: DSWMEEVIKLCGRELVRAQIAICGMSTWS
